# According to US20030124529:
# B1: recombinant wild-type PAPP-A2 (pregnancy-associated plasma protein-A2), in medium of 293T cells transfected with pPA2 (protein)
# chain: SPPEESNQNGGEGSYREAETFNSQVGLPILYFSGRRERLLLRPEVLAEIPREAFTVEAWVKPEGGQNNPAIIAGVFDNCSHTVSDKGWALGIRSGKDKGKRDARFFFSLCTDRVKKATILISHSRYQPGTWTHVAATYDGRHMALYVDGTQVASSLDQSGPLNSPFMASCRSLLLGGDSSEDGHYFRGHLGTLVFWSTALPQSHFQHSSQHSSGEEEATDLVLTASFEPVNTEWVPFRDEKYPRLEVLQGFEPEPEILSPLQPPLCGQTVCDNVELISQYNGYWPLRGEKVIRYQVVNICDDEGLNPIVSEEQIRLQHEALNEAFSRYNISWQLSVHQVHNSTLRHRVVLVNCEPSKIGNDHCDPECEHPLTGYDGGDCRLQGRCYSWNRRDGLCHVECNNMLNDFDDGDCCDPQVADVRKTCFDPDSPKRAYMSVKELKEALQLNSTHFLNIYFASSVREDLAGAATWPWDKDAVTHLGGIVLSPAYYGMPGHTDTMIHEVGHVLGLYHVFKGVSERESCNDPCKETVPSMETGDLCADTAPTPKSELCREPEPTSDTCGFTRFPGAPFTNYMSYTDDNCTDNFTPNQVARMHCYLDLVYQQWTESRKPTPIPIPPMVIGQTNKSLTIHWLPPISGVVYDRASGSLCGACTEDGTFRQYVHTASSRRVCDSSGYWTPEEAVGPPDVDQPCEPSLQAWSPEVHLYHMNMTVPCPTEGCSLELLFQHPVQADTLTLWVTSFFMESSQVLFDTEILLENKESVHLGPLDTFCDIPLTIKLHVDGKVSGVKVYTFDERIEIDAALLTSQPHSPLCSGCRPVRYQVLRDPPFASGLPVVVTHSHRKFTDVEVTPGQMYQYQVLAEAGGELGEASPPLNHIHGAPYCGDGKVSERLGEECDDGDLVSGDGCSKVCELEEGFNCVGEPSLCYMYEGDGICEPFERKTSIVDCGIYTPKGYLDQWATRAYSSHEDKKKCPVSLVTGEPHSLICTSYHPDLPNHRPLTGWFPCVASENETQDDRSEQPEGSLKKEDEVWLKVCFNRPGEARAIFIFLTTDGLVPGEHQQPTVTLYLTDVRGSNHSLGTYGLSCQHNPLIINVTHHQNVLFHHTTSVLLNFSSPRVGISAVALRTSSRIGLSAPSNCISEDEGQNHQGQSCIHRPCGKQDSCPSLLLDHADVVNCTSIGPGLMKCAITCQRGFALQASSGQYIRPMQKEILLTCSSGHWDQNVSCLPVDCGVPDPSLVNYANFSCSEGTKFLKRCSISCVPPAKLQGLSPWLTCLEDGLWSLPEVYCKLECDAPPIILNANLLLPHCLQDNHDVGTICKYECKPGYYVAESAEGKVRNKLLKIQCLEGGIWEQGSCIPVVCEPPPPVFEGMYECTNGFSLDSQCVLNCNQEREKLPILCTKEGLWTQEFKLCENLQGECPPPPSELNSVEYKCEQGYGIGAVCSPLCVIPPSDPVMLPENITADTLEHWMEPVKVQSIVCTGRRQWHPDPVLVHCIQSCEPFQADGWCDTINNRAYCHYDGGDCCSSTLSSKKVIPFAADCDLDECTCRDPKAEENQ
# B2: purified PAPP-A2 (protein)
# chain: B1 chain
# Tests used:
# [1] = target: C-terminally c-myc tagged rIGFBP-5 (human IGFBP-5 followed by a c-myc and His tag, expressed in 293T cells), P24593
# Chain of C-terminally c-myc tagged rIGFBP-5 (human IGFBP-5 followed by a c-myc and His tag, expressed in 293T cells), P24593 (P24593 other isoform, or with tags, fused parts or gaps): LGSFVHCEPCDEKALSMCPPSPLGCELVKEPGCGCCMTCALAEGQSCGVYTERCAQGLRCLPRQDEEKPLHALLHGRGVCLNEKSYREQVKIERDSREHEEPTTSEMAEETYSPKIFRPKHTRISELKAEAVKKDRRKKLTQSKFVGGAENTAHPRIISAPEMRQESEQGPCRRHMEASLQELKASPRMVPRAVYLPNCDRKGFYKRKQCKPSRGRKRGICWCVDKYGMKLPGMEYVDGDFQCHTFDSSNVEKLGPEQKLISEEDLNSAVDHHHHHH
# [2] = target: rIGFBP-3 (gift of D. Powell), P17936
# Chain of rIGFBP-3 (gift of D. Powell), P17936 (P17936 28-291): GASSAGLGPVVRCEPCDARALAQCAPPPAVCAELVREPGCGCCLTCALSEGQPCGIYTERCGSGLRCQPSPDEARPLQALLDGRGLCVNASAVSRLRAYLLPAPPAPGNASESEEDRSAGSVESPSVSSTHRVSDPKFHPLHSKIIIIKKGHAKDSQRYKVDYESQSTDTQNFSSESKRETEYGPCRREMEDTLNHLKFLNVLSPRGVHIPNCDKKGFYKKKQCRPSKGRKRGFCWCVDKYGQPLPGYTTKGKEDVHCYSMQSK
# [3] = target: rIGFBP-5 (gift of D. Andress), P24593
# Chain of rIGFBP-5 (gift of D. Andress), P24593 (P24593 21-272): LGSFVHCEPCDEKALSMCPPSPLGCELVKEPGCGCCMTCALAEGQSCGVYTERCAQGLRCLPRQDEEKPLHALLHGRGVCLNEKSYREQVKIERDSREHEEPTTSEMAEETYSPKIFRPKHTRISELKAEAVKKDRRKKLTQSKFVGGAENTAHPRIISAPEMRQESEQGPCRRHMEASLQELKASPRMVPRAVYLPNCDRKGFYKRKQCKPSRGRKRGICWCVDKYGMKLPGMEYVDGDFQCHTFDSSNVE
Protein,"proteolytic activity, Western blotting using anti-c-myc [1]","proteolytic cleavage, ligand blotting with radiolabeled IGF-II [2]","proteolytic cleavage, ligand blotting with radiolabeled IGF-II [3]","proteolytic cleavage, SDS-PAGE and N-terminal sequence analysis [1]"
B1,"In the absence of inhibitors, wild-type PAPP-A2 degraded all rIGFBP-5 (lane 3)",IGFBP-3 was partially degraded,"Of the six binding proteins, IGFBP-5 showed complete cleavage",
B2,,,,"PAPP-A2 cleaves IGFBP-5 at one site, between Ser-143 and Lys-144"
